Test results taken from patent publication WO2013078377A1.

What was measured:
[1] = molecular target: cynomolgus monkey CD98 as used in SPR, Octet and ELISA (cynomolgus monkey) (UniProt I7GH21); assay: Biacore and Octet
[2] = molecular target: human CD98 as used in ELISA, BIACORE and Octet assays (human) (UniProt P08195); assay: Biacore and Octet
UniProt P08195, sequence (P08195 206-630 limits assumed, form in doubt): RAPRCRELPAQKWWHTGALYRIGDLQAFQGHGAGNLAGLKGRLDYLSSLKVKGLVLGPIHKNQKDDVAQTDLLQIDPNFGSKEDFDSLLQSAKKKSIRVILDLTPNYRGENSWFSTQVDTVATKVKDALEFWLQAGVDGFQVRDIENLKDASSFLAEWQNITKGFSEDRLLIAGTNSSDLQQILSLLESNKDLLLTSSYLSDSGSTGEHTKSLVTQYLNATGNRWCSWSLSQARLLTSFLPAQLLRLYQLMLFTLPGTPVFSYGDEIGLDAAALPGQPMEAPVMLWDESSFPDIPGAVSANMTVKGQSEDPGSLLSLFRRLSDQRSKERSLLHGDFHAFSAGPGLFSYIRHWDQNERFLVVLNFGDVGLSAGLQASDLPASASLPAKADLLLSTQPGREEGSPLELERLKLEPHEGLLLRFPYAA

“humanized anti-CD98 monoclonal antibody IGN523” gave a Kd [1] of 8 to 14 nM and a Kd [2] of 2 to 6 nM.
